Source: article doi:10.1101/546648

Target: OrnVc (oligoribonuclease) (Vibrio cholerae O1 El Tor?) (UniProt Q9KV17)
Test: DRaCALA
Details: 5' phosphate

pGpG (GG, 2-mer)
Kd: 90 nM
